Patent US20240029819A1, “AGENTS BINDING MODIFIED ANTIGEN PRESENTED PEPTIDES AND USE OF SAME” (Yeda Research and Development Co. Ltd., priority 2020, published 2024)
“Also recorded” adds a separate entry of the source. Where no end group is shown, it is not given here. [ ]: non-standard residue; d: D form. N(d) = deamidated Asn

Target: HLA-A0201 (Homo sapiens, UniProt P04439, D140Y/D185E/D98H/E176V/E277Q/G131W/G231S/I119V/I121R/I166T/I218V/L300P/L318F/N151K/N90K/P208A/P217A/Q86G/Q94H/R138H/R169H/T345S)
Test: ProImmune Module 2 REVEAL in-vitro MHC-peptide binding assay
Settings: synthesized modified peptides and unmodified counterparts; score relative to positive control peptide; FIG. 4F
Protocol: ProImmune binding assay—ProImmune (www(dot)proimmune(dot)com) Module 2 REVEAL Binding Assay measure the yield of correctly conformed MHC-peptide complex following incubation of the recombinant MHC allele and peptide of interest using a conformational-dependent antibody in an immunoassay. Each peptide is given a score relative to the positive control peptide, which is a known T cell epitope.
To validate that the modified peptides identified with PROMISE are able to bind to HLA, the subset of modified peptides that were identified in immunopeptidomics of an HLA-A0201 cell line and that were not identified in IEDB in their unmodified form were filtered (FIG. 4D). Further, whether the difference in the detection of the modified peptides and their unmodified counterparts was due to their relative ability to bind HLA-A0201 was examined. […] Methylation of K-6 removes its positive charge and thereby alleviates electrostatic repulsion. In addition, the methyl group is nicely packed into the hydrophobic MHC groove. […] To assess the role of peptide modification in altering MHC binding 6 modified peptides and their unmodified counterparts were synthesized and their binding was examined using a binding assay (ProImmune). In these setting 4 of the synthesized modified peptides were confirmed as HLA binders.

Substance	binding to HLA-A0201 of the modified peptide compared with its matching unmodified form
K(me)VMDEVAGI (KVMDEVAGI; not fully specified (residue 1); printed as K(me)VMDEVAGI)	bind the HLA-A0201 more strongly than the unmodified form
TLE(me)NCLLPD(me) (TLENCLLPD; not fully specified (residues 3, 9); printed as TLE(me)NCLLPD(me))	bound the MHC only in its modified form
TLIESK(me)LPV (TLIESKLPV; not fully specified (residue 6); printed as TLIESK(me)LPV)	bind more strongly in its modified form; also recorded: bind the HLA-A0201 more strongly than the unmodified form
TLN(d)SLIYTL (TL[N(d)]SLIYTL)	bind more strongly in its unmodified form
